How the values were obtained:
[1] = test system: trypsin; assay: Incubation with immobilized trypsin, SDS-PAGE (Example 14); assay type: in vitro ADME; settings: room temperature, 10 min to 2 hr, PBS pH 7.4, FIG. 25
Procedure: An experiment was performed to assess generation of the fragment upon incubation in the presence of trypsin. Columns were prepared to contain 100 μl immobilized Trypsin slurry, washed twice with PBS, loaded with SG-11 (SEQ ID NO:9) diluted in PBS, pH 7.4, then incubated at room temperature for varied times. To stop the reaction, each column was centrifuged to remove protein from the column, then analyzed on an SDS-PAGE gel using Coomassie Blue visualization.

[2] = Stability in fecal slurry, SDS-PAGE and Coomassie blue (Example 14); settings: 37° C., 10 min, 30 min, 1 hr, 2 hr; human fecal pellets in PBS; FIG. 24
[3] = Forced degradation under stress conditions (SEC-HPLC, LC/MS/MS) (Example 8); assay type: physicochemical; settings: for Aggregates (SEC-HPLC): 2 weeks
Procedure: SG-11 (SEQ ID NO:9) was also tested under a series of stress conditions shown in Table 8 below to further characterized the stability of recombinant, purified SG-11. Stressed samples were analyzed either by SEC-HPLC for the presence of aggregates and/or degradants. LC/MS/MS was performed for determination of levels of deamidation and oxidation.
For this analysis, SG-11 (SEQ ID NO:9) was present at a concentration of 1 mg/ml in PBS (50 mM sodium phosphate, 150 mM NaCl, 10% glycerol, pH 8.0), with the exception of tests under pH 4 and pH 9. For pH 4, SG-11 (SEQ ID NO:9) was prepared at a concentration of 1 mg/ml in sodium acetate buffer (50 mM sodium acetate, 150 mM NaCl, pH 4). For pH 9, SG-11 (SEQ ID NO:9) was prepared at a concentration of 1 mg/ml in CAPSO (3-cyclohexylamino-2-hydroxy-1-propanesulfonic acid) buffer (50 mM CAPSO, 150 mM NaCl, pH 9).
Three samples treated by incubation at 40° C. for two weeks, oxidation (H2O2) or high pH 9, respectively, were analyzed by LC/MS/MS for PTMs. […] 7.84% of N53 was deamidated without any treatment.
After reduction, free cysteines were artificially carbamidomethylated by iodoacetamide to block cysteine residues from oxidation in the assays.

[4] = Aggregation by analytical size exclusion chromatography (Example 9); assay type: physicochemical
Procedure: The stability of SG-11 (SEQ ID NO:9) was evaluated following the incubation at 37° C. for one week and at 4° C. for 3 weeks in Buffer C (100 mM sodium phosphate, pH 7.0, 0.5 M sorbitol). The stability was assessed by monitoring the aggregation formation with analytical size exclusion chromatography (SEC) equilibrated with Buffer D (100 mM sodium phosphate, pH 7.0, 10% glycerol). […] The cause of the aggregation was investigated as follows. There are two cysteine residues found in SG-11 at the positions 147 and 151 (relative to SEQ ID NO:7). […] As free sulfhydryl groups could cause aggregation by forming unpreferable intermolecular disulfide bonds, it was examined whether the presence of reducing agent, such as β-mercaptoethanol, could prevent the aggregation.

B1: SG-11 (SEQ ID NO:9): SG-11 (SEQ ID NO:3) with a FLAG-tag (DYKDDDDK) at the N-terminus (protein)
chain: MDYKDDDDKGSSHMLEGEESVVYVGKKGVIASLDVETLDQSYYDETELKSYVDAEVEDYTAEHGKNAVKVESLKVEDGVAKLKMKYKTPEDYTAFNGIELYQGKVVASLAAGYVYDGEFARVEEGKVVGAATKQDIYSEDDLKVAIIRANTDVKVDGEICYVSCQNVKLTGKDSVSIRDGYYLETGSVTASVDVTGQESVGTEQLSGTEQMEMTGEPVNADDTEQTEAAAGDGSFETDVYTFIVYK
modifications: N-terminal FLAG tag
[1]
  Product on incubation with trypsin (SDS-PAGE): a predominant band is generated in the presence of trypsin
[2]
  Stability in fecal slurry (SDS-PAGE): generation of a predominant band with an apparent molecular weight of about 25 kDa
[3]; 4° C.
  Aggregates (SEC-HPLC): low level of aggregates
[3]; 37° C.
  Aggregates (SEC-HPLC): major aggregation occurred
[3]; mechanical stress
  Aggregation or degradation (SEC-HPLC): do not cause either protein aggregation or degradation
[3]; repeated freeze and thaw
  Aggregation or degradation (SEC-HPLC): do not cause either protein aggregation or degradation
[4]; 4-days incubation at 37° C. in presence of 2.5% (v/v) mercaptoethanol, 50 mM sodium phosphate, 150 mM NaCl, 10% glycerol
  Aggregation formation (analytical SEC): Aggregation was greatly suppressed
[4]; 4° C. for 3 weeks in Buffer C (100 mM sodium phosphate, pH 7.0, 0.5 M sorbitol), vs freshly thawed protein
  Aggregation formation (analytical SEC): No noticeable change
[4]; 37° C. for one week in Buffer C (100 mM sodium phosphate, pH 7.0, 0.5 M sorbitol)
  Aggregation formation (analytical SEC): clearly showed aggregation peaks

From patent US11505583B2, “Proteins for the treatment of epithelial barrier function disorders” (Second Genome, Inc., priority 2018, dated 2022)
